± gives the standard deviation of the averaged measurements.
test system: Saccharomyces cerevisiae; experiment: protein stability index of tFT-peptide fusion (C-terminal peptide) (PSI (0-1 scale)); higher = more stable (slower turnover); settings: genetic background: wild type; temperature: 30 C
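Note: PSI is a weighted mean of sequencing reads over stability bins, variants kept only with over 10 reads, mCherry proximal and sfGFP distal, peptide attached via GGGS linker.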

Sequence | protein stability index
PLLPYPFPPPLS | 0.784 ± 0.04
PLLTFSPLPGLS | 0.696 ± 0.034
PLLTPPPVLHHP | 0.741 ± 0.035
PLLVLSLRLSPP | 0.664 ± 0.013
PLPALRPGAAPH | 0.7457 ± 0.0023
PLPAPPSTPSSP | 0.715 ± 0.034
PLPAPPTPPLPP | 0.763 ± 0.039
PLPARFPPSPPS | 0.743 ± 0.074
PLPFLPPPPCPP | 0.696 ± 0.036
PLPFPFPLCSQS | 0.64 ± 0.1
PLPFPPPPPSPY | 0.655 ± 0.086
PLPLPSTALPPS | 0.632 ± 0.063
PLPPISSFPSLS | 0.703 ± 0.028
PLPPLFLPPPPL | 0.708 ± 0.021
PLPPLLLPPPLP | 0.703 ± 0.046
PLPPPLPQAPPT | 0.695 ± 0.021
PLPPPPAPPLPP | 0.647 ± 0.024
PLPPPPLLPFVL | 0.774 ± 0.085
PLPPPPTPPVPV | 0.672 ± 0.015
PLPPRPSPPPPL | 0.705 ± 0.013
PLPPSSSPSSLP | 0.71 ± 0.077
PLPPTAPPHPPP | 0.671 ± 0.096
PLPQVLYPPPPS | 0.6905 ± 0.0045

Sequence | protein stability index
PLPRLRRPAPPH | 0.667 ± 0.055
PLPRPPPPSCPP | 0.654 ± 0.076
PLPRPPPTATGD | 0.687 ± 0.013
PLPRSPRPSAPP | 0.622 ± 0.034
PLPSAPLLPPPP | 0.686 ± 0.056
PLPVLLLPGHLP | 0.733 ± 0.054
PLPYSPPHPVPP | 0.701 ± 0.029
PLRDHPAPPHRL | 0.665 ± 0.068
PLRESSTRPSLL | 0.684 ± 0.055
PLRLPPAPPFPL | 0.824 ± 0.075
PLRLPPAPPPPP | 0.617 ± 0.015
PLRPAPVLYPAF | 0.654 ± 0.012
PLRPPRPPPPPF | 0.726 ± 0.052
PLRRRPFAPPPP | 0.535 ± 0.034
PLSFHPHLTSSP | 0.671 ± 0.013
PLSLSPLPSPPL | 0.704 ± 0.041
PLSPPAPSPAPR | 0.644 ± 0.0071
PLSPPLPPPLSL | 0.681 ± 0.031
PLSPPPPPRPPL | 0.728 ± 0.019
PLSPPPSLPVPL | 0.659 ± 0.051
PLSPRLPRRRLP | 0.681 ± 0.017
PLSSLSLPTPPT | 0.707 ± 0.062
PLSTHNSLPRVK | 0.691 ± 0.061

Sequence | protein stability index
PLSVSLSLLTPR | 0.74 ± 0.13
PLTNKTHRPPDK | 0.702 ± 0.0091
PLVPSPSPPPAR | 0.727 ± 0.031
PLWRVPPYPPSP | 0.691 ± 0.031
PLWVFFRFSPNL | 0.662 ± 0.01
PMNCIGTRGHQV | 0.65854 ± 0.00043
PMPPPPPACSLD | 0.777 ± 0.11
PNAPSLSPPSLF | 0.624 ± 0.066
PNASPNPHRSNK | 0.708 ± 0.062
PNESFLLPELNH | 0.711 ± 0.0083
PNETQTQRPATR | 0.683 ± 0.025
PNPPHPPPLPPA | 0.595 ± 0.033
PNPRSPRPSPPS | 0.687 ± 0.038
PPAFPPPPSPPP | 0.636 ± 0.091
PPAHPRPPPPFL | 0.762 ± 0.037
PPAPLHLPSLPR | 0.705 ± 0.018
PPAPPHLPPLPR | 0.71574 ± 0.00046
PPAPPLPAPPWA | 0.54 ± 0.032
PPAPPPLPPPPP | 0.729 ± 0.0092
PPAPPPPTGLCL | 0.755 ± 0.092
PPAPRPPLFPYP | 0.697 ± 0.043
PPAPRPPSPRPP | 0.693 ± 0.033
PPARIFRSLPTP | 0.711 ± 0.047

Sequence | protein stability index
PPASLRRLLPPP | 0.654 ± 0.0066
PPASPPLPPPRP | 0.689 ± 0.042
PPATTSATRVRP | 0.698 ± 0.043
PPAVRRPRRGGN | 0.699 ± 0.016
PPCGPPGPPIPP | 0.592 ± 0.026
PPCLPPASRPVL | 0.699 ± 0.0069
PPDPPPYAPPPP | 0.648 ± 0.015
PPDPPWPRSPPA | 0.588 ± 0.019
PPFLPLPPPPLP | 0.731 ± 0.015
PPFLSAFPPHLP | 0.724 ± 0.015
PPFPPPPRPPSS | 0.645 ± 0.036
PPFTRLPPPLSS | 0.741 ± 0.062
PPGPPRPFPSHL | 0.785 ± 0.16
PPHFPLPLPPTP | 0.706 ± 0.024
PPHPARHRPPAS | 0.7321 ± 0.0016
PPHPPRPPSPHP | 0.707 ± 0.051
PPHPSPPPPSHS | 0.693 ± 0.039
PPICLCHDPAAH | 0.659 ± 0.013
PPLAPPPPPRPP | 0.6 ± 0.072
PPLASSPPVLAR | 0.514 ± 0.018
PPLCPPLPFLHP | 0.885 ± 0.11
PPLDLPFPSRSI | 0.745 ± 0.0078
PPLFPPPTLPEL | 0.738 ± 0.02

Sequence | protein stability index
PPLGPRPPSNST | 0.6522 ± 0.0058
PPLKPRTSRPTI | 0.682 ± 0.009
PPLLPLPPPPSP | 0.625 ± 0.067
PPLLPLSQPLPH | 0.683 ± 0.038
PPLLPPAPLFPP | 0.694 ± 0.025
PPLPAPPAPAVQ | 0.6991 ± 0.0027
PPLPFAISPPPA | 0.6624 ± 0.0017
PPLPHPPLLAPP | 0.748 ± 0.15
PPLPLPPPIRPP | 0.6388 ± 0.0037
PPLPNLVYHLST | 0.6195 ± 0.0054
PPLPPHPPPGQQ | 0.697 ± 0.017
PPLPPLPLSLSI | 0.742 ± 0.093
PPLPPLPPLPPP | 0.72 ± 0.08
PPLPPPPPRLPA | 0.636 ± 0.025
PPLPPQLVQDLL | 0.72 ± 0.073
PPLPPRPAPIPP | 0.663 ± 0.033
PPLPPRPQTHLH | 0.728 ± 0.074
PPLPPSPPAPPP | 0.629 ± 0.0019
PPLPPSSPPPSS | 0.6605 ± 0.0028
PPLPPTLSSIVI | 0.599 ± 0.021
PPLPRPHHPYRR | 0.708 ± 0.025
PPLRPPRPHQHS | 0.636 ± 0.039
PPLSVLPFRFIL | 0.575 ± 0.048

Sequence | protein stability index
PPLTHASPLHLI | 0.585 ± 0.021
PPLTRRSTLMSY | 0.591 ± 0.042
PPLVPPTPAFPP | 0.623 ± 0.028
PPNLLPPLSPSL | 0.678 ± 0.08
PPPAAPPSSPLL | 0.765 ± 0.071
PPPAPLPPRSSS | 0.638 ± 0.086
PPPAPPLTFGHV | 0.6852 ± 0.0031
PPPAPRPPASPP | 0.69815 ± 0.00052
PPPAPRTPPLLP | 0.736 ± 0.029
PPPDPPRHGRPE | 0.684 ± 0.035
PPPDRLPPAHLP | 0.721 ± 0.029
PPPFLPLCFPPL | 0.691 ± 0.032
PPPFPPPPLFPL | 0.714 ± 0.032
PPPGPPAVANRL | 0.701 ± 0.072
PPPGPSPPPSPH | 0.683 ± 0.074
PPPGPSRRPAAL | 0.726 ± 0.017
PPPHPHPFSLAL | 0.691 ± 0.017
PPPHPLALPPPP | 0.74 ± 0.03
PPPHPPPPLPPP | 0.617 ± 0.01
PPPHPPPPPLPS | 0.635 ± 0.021
PPPHPPRPPVPR | 0.697 ± 0.016
PPPHRPPPRPPR | 0.697 ± 0.0094
PPPHSPLPAPPR | 0.76 ± 0.086

Sequence | protein stability index
PPPLASLSPASP | 0.624 ± 0.05
PPPLATPTPTRP | 0.688 ± 0.17
PPPLLPPHPPGL | 0.701 ± 0.0096
PPPLLPPLDAPS | 0.721 ± 0.083
PPPLLSPAFFLP | 0.727 ± 0.053
PPPLPGSLLPLP | 0.72349 ± 0.00037
PPPLPPLPTALS | 0.693 ± 0.0036
PPPLPPRMPPPF | 0.72 ± 0.036
PPPLPRSPPPPF | 0.74 ± 0.021
PPPLPSSPSPLL | 0.679 ± 0.022
PPPLSLTPPFLY | 0.673 ± 0.074
PPPLSPPTPPPP | 0.674 ± 0.049
PPPLSSPGPPPL | 0.704 ± 0.014
PPPLTPSPPPPP | 0.663 ± 0.021
PPPLTYPTSPPS | 0.661 ± 0.019
PPPNLSSGVPFI | 0.7051 ± 0.0025
PPPPALWPPPSP | 0.735 ± 0.013
PPPPASPPHAPP | 0.653 ± 0.07
PPPPFPLPSPSL | 0.655 ± 0.022
PPPPGKTDRPSH | 0.695 ± 0.055
PPPPGPGSAPPP | 0.59 ± 0.065
PPPPGPPPLPLP | 0.764 ± 0.058

From the supplement of paper PMC10724198
